Measured values published in paper PMC9543038 (Chembiochem, 2022).
Blank lines part the entries; values can stand above or below the binder they belong to. Where no end group is shown, it is not given here. [ ]: non-standard residue; d: D form. pT = C[C@@H](OP(=O)(O)O)[C@H](N)C(=O)O; FAM = fluorescein

How the values were obtained:
[1] = molecular target: the molecule itself; test: cross-linking
[2] = molecular target: T1, FAM‐ERα‐pTV peptide; test: fluorescence polarisation
T1 peptide: {FAM}-KYYITGEAEGFPA[pT]V

[3] = molecular target: T1, FAM‐ERα‐pTV peptide; test: fluorescence polarisation
[4] = molecular target: T1, FAM‐ERα‐pTV peptide; test: fluorescence polarisation

B1: His‐14‐3‐3γ (natural protein, UniProt P61981 1-247, looked up)
chain: MVDREQLVQKARLAEQAERYDDMAAAMKNVTELNEPLSNEERNLLSVAYKNVVGARRSSWRVISSIEQKTSADGNEKKIEMVRAYREKIEKELEAVCQDVLSLLDNYLIKNCSETQYESKVFYLKMKGDYYRYLAEVATGEKRATVVESSEKAYSEAHEISKEHMQPTHPIRLGLALNYSVFYYEIQNAPEQACHLAKTAFDDAIAELDTLNEDSYKDSTLIMQLLRDNLTLWTSDQQDDDGGEGNN
stoichiometry N [1]: 2

pEC50 [2]: 5.13
pEC50 with FC-A (100 μM) [3]: 6.16
pEC50 with fragment 2 (1 mM) [4]: 5.92
B2: recombinant N‐terminally GST‐tagged 14‐3‐3η (natural protein)
chain: MGDREQLLQRARLAEQAERYDDMASAMKAVTELNEPLSNEDRNLLSVAYKNVVGARRSSWRVISSIEQKTMADGNEKKLEKVKAYREKIEKELETVCNDVLSLLDKFLIKNCNDFQYESKVFYLKMKGDYYRYLAEVASGEKKNSVVEASEAAYKEAFEISKEQMQPTHPIRLGLALNFSVFYYEIQNAPEQACLLAKQAFDDAIAELDTLNEDSYKDSTLIMQLLRDNLTLWT
